Experimental findings from article PMC11166852, “Low-temperature features of the psychrophilic chaperonin from Pseudoalteromonas haloplanktis” (Archives of Microbiology, 2024) are described below.

In experiment [1] the target is Cpn60 from Pseudoalteromonas haloplanktis (Pseudoalteromonas haloplanktis). The experiment can be described thus: native gel or EMSA; native PAGE of purified proteins, Coomassie brilliant blue staining.
Experiment [2] shares this target. In words: SEC; analytical gel filtration, Superdex 75 GL (10/300), buffer C (20 mM MOPS pH 7.2, 150 mM KCl, 5 mM MgCl2), run at 5 °C, in the absence or presence of 1 mM ATP.
The target is the same in experiment [3]. In words: negative-stain electron microscopy; 0.125 µM Cpn60 in buffer C preincubated at 5 °C or 25 °C; where indicated 1 mM ATP, 1 mM ADP and 0.375 µM Cpn10; 1% uranyl acetate.
For experiment [4], the target named is single-ring SR-GroEL (Escherichia coli) (UniProt P0A6F5). In words: SEC; analytical gel filtration, Superdex 75 GL (10/300), buffer C (20 mM MOPS pH 7.2, 150 mM KCl, 5 mM MgCl2), run at 5 °C, in the absence or presence of 1 mM ATP.
The target in experiment [5] is Cpn60 from Pseudoalteromonas haloplanktis (Pseudoalteromonas haloplanktis).
The target is the same in experiment [6]. In words: MST; Cpn60 labelled with NT-647-NHS, serial dilutions of Cpn10 in buffer C with 1 mM ADP, 25 °C, Monolith NT.115, MST power 80%.
The next experiment addresses T1, Escherichia coli GroEL (Escherichia coli, UniProt P0A6F5 1-548, fluorophore from the NT-647-NHS labeling kit (in the MST measurements only)).
T1 construct: GroEL (Cpn60) of Escherichia coli; Tetradecamer (MW 800 kDa); also called Ec GroEL; Ec chaperonin; source: E. coli, purified as described (Weissman et al. 1995; Hayer-Hartl et al. 1996; Kusmiercyk and Martin 2000); copies: 14
Described as above. The settings on record: both partners purified.

T1 sequence (P0A6F5 whole entry): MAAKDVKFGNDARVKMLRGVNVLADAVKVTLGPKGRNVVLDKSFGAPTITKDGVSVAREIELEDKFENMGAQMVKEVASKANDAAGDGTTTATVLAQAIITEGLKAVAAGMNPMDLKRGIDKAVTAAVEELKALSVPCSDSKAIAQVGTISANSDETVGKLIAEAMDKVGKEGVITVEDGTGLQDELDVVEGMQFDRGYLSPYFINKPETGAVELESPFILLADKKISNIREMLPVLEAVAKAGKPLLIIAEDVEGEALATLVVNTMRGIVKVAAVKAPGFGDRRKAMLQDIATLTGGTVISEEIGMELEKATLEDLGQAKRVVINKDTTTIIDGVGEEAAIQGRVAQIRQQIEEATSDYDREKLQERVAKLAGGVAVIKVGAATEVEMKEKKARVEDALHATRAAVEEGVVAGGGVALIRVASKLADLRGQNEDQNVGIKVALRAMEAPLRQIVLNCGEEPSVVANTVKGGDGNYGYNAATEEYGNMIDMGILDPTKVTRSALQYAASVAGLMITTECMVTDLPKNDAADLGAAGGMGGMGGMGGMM

In general, stoichiometry N refers to the number of molecules, sites or subunits per partner or assembly. “Cpn60 from Pseudoalteromonas haloplanktis (natural protein)”: the stoichiometry N in experiment [1], in experiment [2] and in experiment [3] was 14 each time.
Turning to “single-ring SR-GroEL (from UniProt P0A6F5 1-548) (natural protein)”, the stoichiometry N in experiment [4] turned out to be 7.
With “α-casein (from UniProt P02662 16-214) (natural protein)”, the stimulation of Ph Cpn60 ATPase by a five-fold molar excess of α-casein (10 °C and 25 °C, with or without Ph Cpn10) in experiment [5] was 3 fold.

B1: Cpn10 from Pseudoalteromonas haloplanktis (natural protein)
chain: MNIRPLHDRVIVKRLEEETKSAGGIVLTGSAAEKSTRGEVVAVGNGRTLDNGDVRALEVKVGDTVLFGSYVEKAEKIEGQEYLIMREDNILGIVG
In general, Kd refers to the constant that tells how readily two partners part at equilibrium. The molecule B1 came in with a dissociation constant (Kd) in experiment [6] of 352 nM.

B2: Escherichia coli GroES (natural protein, UniProt P0A6F9 1-97, looked up)
chain: MNIRPLHDRVIVKRKEVETKSAGGIVLTGSAAAKSTRGEVLAVGNGRILENGEVKPLDVKVGDIVIFNDGYGVKSEKIDNEEVLIMSESDILAIVEA
notes: GroES (Cpn10) of Escherichia coli; also called Ec GroES; source: E. coli, purified as described (Weissman et al. 1995; Hayer-Hartl et al. 1996; Kusmiercyk and Martin 2000)
Regarding B2, in the experiment with Escherichia coli GroEL, the dissociation constant Kd amounted to 8.8 ± 1.8 nM.
